Six molecules from patent US5948643, “Modulators of BRCA1 activity” (Onyx Pharmaceuticals, Inc., dated 1999) can be followed below.

The target of test [1] is T1, vector control (GAL4 binding domain vector without insert) (Saccharomyces cerevisiae (strain ATCC …, UniProt P04386)). The test can be described thus: yeast two-hybrid (Example 3); vector control. The protocol:
(§1) Two hybrid experiments were conducted to ascertain the regions of the BRCA1 Modulator 091-21A31, Sequence ID No. 1 that interact with BRCA1. The assay was run essentially as described in Example 1. Transformation and growth of yeast cultures were performed essentially as described in U.S. Pat. No. 5,283,173; Chien et al., 1991, Proc. Natl. Acad. Sci. USA, 88: 9578–9582; or Spaargaren, M., et al., (1994) Biochem. J. 300, 303–307.

Test [2] addresses BRCA1 (1-300) fused to the GAL4 binding domain (human). The test can be described thus: yeast two-hybrid (Example 3). The method, then: as §1
Test [3] concerns the target T1, vector control (GAL4 binding domain …). The test can be described thus: yeast two-hybrid, b-galactosidase; vector control. The method, then: (§2) The experiment was conducted using the two-hybrid assay as described in U.S. Pat. No. 5,283,173, or Chien et al., 1991, Proc. Natl. Acad. Sci. USA, 88: 9578–9582. The cDNAs that encode 091-1F84, Sequence ID No. 3, 091-21A31, Sequence ID No. 1 and 091-132Q20, Sequence ID No. 5 were fused to the GAL 4 activation domain, and those regions of BRCA1 shown in the table were fused to the binding domain of GAL4. The "+" sign is a subjective measure of the amount of b-galactosidase activity. One "+" being the lowest, and three "+++" being the highest activity.
(§3) Experiments were conducted to ascertain which regions of BRCA1 interact with the three BRCA1 Modulators described in Example 1. The experiment was conducted using the two-hybrid assay as described in U.S. Pat. No. 5,283,173, or Chien et al., 1991, Proc. Natl. Acad. Sci. USA, 88: 9578–9582. The cDNA that encodes the 091-1F84, Sequence ID No. 3, 091-21A31, Sequence ID No. 1, and 091-132Q20, Sequence ID No. 5 was fused to the GAL4 activation domain, and those regions of BRCA1 shown in Table 1 and that contain BRCA1 amino acids 1–300, 1–600, or 8–1293 were fused to the binding domain of GAL4. Controls consisted of the vector, or bcl2 fused to the GAL4 binding domain (See, U.S. Pat. 5,539,085).

In test [4] the target is BRCA1 (1-300) fused to the GAL4 binding domain (human). The test can be described thus: yeast two-hybrid, b-galactosidase. The protocol:
as §2, §3

Test [5] concerns the target BRCA1 (1-600) fused to the GAL4 binding domain (human). The test can be described thus: yeast two-hybrid (Example 3). The protocol:
as §1

Test [6] addresses GAL4-BRCA1 (8-1293): BRCA1 amino acids 8-1293 fused to the GAL4 binding domain (human). The test can be described thus: yeast two-hybrid (Example 3). The protocol: as §1

B1: 091-21A31, Sequence ID No. 1 fragment containing amino acids 78-469 fused to the GAL4 activation domain (other)
chain: FLKNELDNVRAQLSQKDKEKRDSQVIIDTLRDTLEERNATVVSLQQALGKAEMLCSTLKKQMKYLEQQQDETKQAQEEARRLRSKMKTMEQIELLLQSQRPEVEEMIRDMGVGQSAVEQLAVYCVSLKKEYENLKEARKASGEVADKLRKDLFSSRSKLQTVYSELDQAKLELKSAQKDLQSADKEIMSLKKKLTMLQETLNLPPVASETVDRLVLESPAPVEVNLKLRRPSFRDDIDLNATFDVDTPPARPSSSQHGYYEKLCLEKSHSPIQDVPKKICKGPRKESQLSLGGQSCAGEPDEELVGAFPIFVRNAILGQKQPKRPRSESSCSKDVVRTGFDGLGGRTKFIQPTDTVMIRPLPVKPKTKVKQRVRVKTVPSLFQAKLDTFLWS
Consider B1, for which the binding result in test [1] and in test [2] was “no binding” each time.

B2: BRCA1 Modulator Protein 091-1F84, Sequence ID No. 3, fused to the GAL4 activation domain (other)
chain: ARESLSLPSMLRDAAIGTTPFSTCSVGTWFTPSAPQEKSTNTSQTGLVGTKHSTSETEQLLCGRPPDLTALSRHDLEDNLLSSLVILEVLSRQLRDWKSQLAVPHPETQDSSTQTDTSHSGITNKLQHLKESHEMGQALQQARNVMQSWVLISKELISLLHLSLLHLEEDKTTVSQESRRAETLVCCCFDLLKKLRAKLQSLKAEREEARHREEMALRGKDAAEIVLEAFCAHASQRISQLEQDLASMREFRGLLKDAQTQLVGLHAKQEELVQQTVSLTSTLQQDWRSMQLDYTTWTALLSRSRQLTEKLTVKSQQALQERDVAIEEKQEVSRVLEQVSAQLEECKGQTEQLELENSRLATDLRAQLQILANMDSQLKELQSQHTHCAQDLAMKDELFCQLTQSNEEQAAQWQKEEMALKHMQAELQQQQAVLAKEVRDLKETLEFADQENQVAHLELGQVECQLKTTLEVLRERSLQCENLKDTVENLTAKLASTIADNQEQDLEKTRQYSQKLRLLTEQLQSLTLFLQTKLKEKTEQETLLLSTACPPTQEHPLPNDRTFLGSILTAVADEEPESTPVPLLGSDKSAFTRVASMVSLQPAETPGMEESLAEMSIMTTELQSLCSLLQESKEEAIRTLQRKICELQVRLQAQEEQHQEVQKAKEADIEKLNQALCLRYKNEKELQEVIQQQNEKILEQIDKSGELISLREEVTHLTRSLRRAETETKVLQEALAGQLDSNCQPMATNWIQEKVWLSQEVDKLRVMFLEMKNEKEKLMIKFQSHRNILEENLRRSDKELEKLDDIVQHIYKTLLSIPEVVRGCRELQGLLEFLS
Turning to B2, the binding result in test [3] and in test [4] was “no binding” in each case.

B3: 091-21A31, Sequence ID No. 1 fragment containing amino acids 1-300 fused to the GAL4 activation domain (other)
chain: MPIRALCTICSDFFDHSRDVAAIHCGHTFHLQCLIQWFETAPSRTCPQCRIQVGKRTIINKLFFDLAQEEENVLDAEFLKNELDNVRAQLSQKDKEKRDSQVIIDTLRDTLEERNATVVSLQQALGKAEMLCSTLKKQMKYLEQQQDETKQAQEEARRLRSKMKTMEQIELLLQSQRPEVEEMIRDMGVGQSAVEQLAVYCVSLKKEYENLKEARKASGEVADKLRKDLFSSRSKLQTVYSELDQAKLELKSAQKDLQSADKEIMSLKKKLTMLQETLNLPPVASETVDRLVLESPAPVE
Turning to B3, the binding result in test [1], in test [2] and in test [5] was “no binding” in each case.

B4: BRCA1 Modulator Protein 091-21A31, Sequence ID No. 1, fused to the GAL4 activation domain (other)
chain: MPIRALCTICSDFFDHSRDVAAIHCGHTFHLQCLIQWFETAPSRTCPQCRIQVGKRTIINKLFFDLAQEEENVLDAEFLKNELDNVRAQLSQKDKEKRDSQVIIDTLRDTLEERNATVVSLQQALGKAEMLCSTLKKQMKYLEQQQDETKQAQEEARRLRSKMKTMEQIELLLQSQRPEVEEMIRDMGVGQSAVEQLAVYCVSLKKEYENLKEARKASGEVADKLRKDLFSSRSKLQTVYSELDQAKLELKSAQKDLQSADKEIMSLKKKLTMLQETLNLPPVASETVDRLVLESPAPVEVNLKLRRPSFRDDIDLNATFDVDTPPARPSSSQHGYYEKLCLEKSHSPIQDVPKKICKGPRKESQLSLGGQSCAGEPDEELVGAFPIFVRNAILGQKQPKRPRSESSCSKDVVRTGFDGLGGRTKFIQPTDTVMIRPLPVKPKTKVKQRVRVKTVPSLFQAKLDTFLWS
B4: the binding result in test [3] and in test [4] was “no binding” throughout.

B5: 091-21A31, Sequence ID No. 1 fragment containing amino acids 300-469 fused to the GAL4 activation domain (other)
chain: EVNLKLRRPSFRDDIDLNATFDVDTPPARPSSSQHGYYEKLCLEKSHSPIQDVPKKICKGPRKESQLSLGGQSCAGEPDEELVGAFPIFVRNAILGQKQPKRPRSESSCSKDVVRTGFDGLGGRTKFIQPTDTVMIRPLPVKPKTKVKQRVRVKTVPSLFQAKLDTFLWS
As for B5, the binding result in test [1], in test [6], in test [2] and in test [5] was “no binding” throughout.

B6: BRCA1 Modulator Protein 091-132Q20, Sequence ID No. 5, fused to the GAL4 activation domain (other)
chain: ARGGAEEATEAGRGGRRRSPRQKFEIGTMEEAGICGLGVKADMLCNSQSNDILQHQGSNCGGTSNKHSLEEDEGSDFITENRNLVSPAYCTQESREEIPGGEARTDPPDGQQDSECNRNKEKTLGKEVLLLMQALNTLSTPEEKLAALCKKYADLLEESRSVQKQMKILQKKQAQIVKEKVHLQSEHSKAILARSKLESLCRELQRHNKTLKEENMQQAREEEERRIEATAHFQITLNEIQAQLEQHDIHNAKLRQENIELGEKLKKLIEQYALREEHIDKVFKHKELQQQLVDAKLQQTTQLIKEADEKHQREREFLLKEATESRHKYEQMKQQEVQLKQQLSLYMDKFEEFQTTMAKSNELFTTFRQEMEKMTKKIKKKKKKLE
As for B6, the binding result in test [3] and in test [4] was “no binding” throughout.
